Broadly, the kcat is the maximal rate divided by the concentration of active sites. A word on the kcat/KM: it is the turnover number divided by the Michaelis constant. The KM is the substrate concentration at which the rate is half of its maximum.

The target in data set [1] is Factor X (FX), substrate zymogen, P00742.
The target of data set [2] is antithrombin III (plasma purified human AT-III), in complex with unfractionated heparin.
Data set [3] addresses plasma purified human antithrombin III (AT-III) in complex with unfractionated heparin (AT-III/UFH).
In data set [4] the target is Antithrombin III (plasma purified human AT-III, Molecular Innovations), as AT-III/UFH complex.
Data set [5] has as its target plasma purified human AT-III (antithrombin III), in complex with full-length unfractionated heparin (AT-III/UFH).

Chain of Factor X (FX), P00742 (P00742 whole entry, looked up): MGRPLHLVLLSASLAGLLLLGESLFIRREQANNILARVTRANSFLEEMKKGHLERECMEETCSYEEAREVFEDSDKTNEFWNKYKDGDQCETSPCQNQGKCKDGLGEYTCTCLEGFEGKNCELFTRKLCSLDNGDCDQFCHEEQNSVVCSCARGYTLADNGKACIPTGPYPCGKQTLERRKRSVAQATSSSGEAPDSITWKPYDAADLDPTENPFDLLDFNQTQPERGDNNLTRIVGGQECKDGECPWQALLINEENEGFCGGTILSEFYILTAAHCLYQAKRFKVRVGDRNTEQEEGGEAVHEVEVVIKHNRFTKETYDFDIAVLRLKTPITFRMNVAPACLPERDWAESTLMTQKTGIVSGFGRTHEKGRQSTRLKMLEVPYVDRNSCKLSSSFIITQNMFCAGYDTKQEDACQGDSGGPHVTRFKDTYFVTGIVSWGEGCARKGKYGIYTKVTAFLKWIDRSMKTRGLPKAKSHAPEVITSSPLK
Chain of Factor X (FX), substrate zymogen, P00742 (P00742 whole entry, looked up): as above
Chain of Factor X, P00742 (P00742 whole entry, looked up): as above

B1: FIXa-R318Y/R338E/R403E/E410N (protein)
chain 1: YNSGKLEEFVQGNLERECMEEKCSFEEAREVFENTERTTEFWKQYVDGDQCESNPCLNGGSCKDDINSYECWCPFGFEGKNCELDVTCNIKNGRCEQFCKNSADNKVVCSCTEGYRLAENQKSCEPAVPFPCGRVSVSQTSKLTR
chain 2: VVGGEDAKPGQFPWQVVLNGKVDAFCGGSIVNEKWIVTAAHCVETGVKITVVAGEHNIEETEHTEQKRNVIRIIPHHNYNAAINKYNHDIALLELDEPLVLNSYVTPICIADKEYTNIFLKFGSGYVSGWGRVFHKGYSALVLQYLRVPLVDRATCLESTKFTIYNNMFCAGFHEGGRDSCQGDSGGPHVTEVEGTSFLTGIISWGEECAMKGKYGIYTKVSEYVNWIKNKTKLT
Take B1: the kcat/KM (M^-1s^-1), FX activation by FIXa in the Xase complex with Factor X (FX), P00742 worked out at 1.5e+08 M⁻¹ s⁻¹. For the same protein, the KM (Catalytic activity of FIXa variants) with Factor X, P00742 is 0.0455 µM. Moreover, in data set [1], the “catalytic activity (kcat/KM) for activation of FX in the Xase complex (FVIIIa, PC/PS vesicles, Ca2+), fluorogenic FXa read-out” value (shortened to “catalytic activity (kcat/KM)”) is on record as “displayed some of the greatest increases in catalytic activity”. The K0.5 in data set [2] turned out to be 5.88 µM.

B2: FIXa-K247N/N249S/R338E/T343R/R403E (protein)
chain 1: YNSGKLEEFVQGNLERECMEEKCSFEEAREVFENTERTTEFWKQYVDGDQCESNPCLNGGSCKDDINSYECWCPFGFEGKNCELDVTCNIKNGRCEQFCKNSADNKVVCSCTEGYRLAENQKSCEPAVPFPCGRVSVSQTSKLTR
chain 2: VVGGEDAKPGQFPWQVVLNGKVDAFCGGSIVNEKWIVTAAHCVETGVKITVVAGEHNIEETEHTEQNRSVIRIIPHHNYNAAINKYNHDIALLELDEPLVLNSYVTPICIADKEYTNIFLKFGSGYVSGWGRVFHKGRSALVLQYLRVPLVDRATCLESTKFRIYNNMFCAGFHEGGRDSCQGDSGGPHVTEVEGTSFLTGIISWGEECAMKGKYGIYTKVSEYVNWIKEKTKLT
Regarding B2, in the data set with Factor X (FX), P00742, the kcat came to 14.6 s⁻¹ and the kcat/KM was determined as 5.6e+08 M⁻¹ s⁻¹. Besides, in data set [1], the “catalytic activity (kcat/KM)” value is listed as “improved activity when combined with other mutations”.

B3: FIXa R318Y/R338E/R403E/E410N (mature FIX numbering) (protein)
chain 1: YNSGKLEEFVQGNLERECMEEKCSFEEAREVFENTERTTEFWKQYVDGDQCESNPCLNGGSCKDDINSYECWCPFGFEGKNCELDVTCNIKNGRCEQFCKNSADNKVVCSCTEGYRLAENQKSCEPAVPFPCGRVSVSQTSKLTR
chain 2: VVGGEDAKPGQFPWQVVLNGKVDAFCGGSIVNEKWIVTAAHCVETGVKITVVAGEHNIEETEHTEQKRNVIRIIPHHNYNAAINKYNHDIALLELDEPLVLNSYVTPICIADKEYTNIFLKFGSGYVSGWGRVFHKGYSALVLQYLRVPLVDRATCLESTKFTIYNNMFCAGFHEGGRDSCQGDSGGPHVTEVEGTSFLTGIISWGEECAMKGKYGIYTKVSEYVNWIKNKTKLT
In data set [3], B3 gave a K0.5 of 5.88 µM.

B4: FIXa-K247N/N249S/R318Y/R338E/T343R/R403E/E410N (protein)
chain 1: YNSGKLEEFVQGNLERECMEEKCSFEEAREVFENTERTTEFWKQYVDGDQCESNPCLNGGSCKDDINSYECWCPFGFEGKNCELDVTCNIKNGRCEQFCKNSADNKVVCSCTEGYRLAENQKSCEPAVPFPCGRVSVSQTSKLTR
chain 2: VVGGEDAKPGQFPWQVVLNGKVDAFCGGSIVNEKWIVTAAHCVETGVKITVVAGEHNIEETEHTEQNRSVIRIIPHHNYNAAINKYNHDIALLELDEPLVLNSYVTPICIADKEYTNIFLKFGSGYVSGWGRVFHKGYSALVLQYLRVPLVDRATCLESTKFRIYNNMFCAGFHEGGRDSCQGDSGGPHVTEVEGTSFLTGIISWGEECAMKGKYGIYTKVSEYVNWIKNKTKLT
B4: in the data set with Factor X (FX), P00742, the KM was 0.0292 µM and the kcat of FX activation by FIXa in the Xase complex (FVIIIa, PC/PS vesicles, Ca2+) stood at 10.6 s⁻¹. Also, in data set [1], the “catalytic activity (kcat/KM)” value was “improved activity when combined with other mutations”.

B5: FIXa Y155F/R318Y/R338E/R403E/E410N (mature FIX numbering) (protein)
chain 1: YNSGKLEEFVQGNLERECMEEKCSFEEAREVFENTERTTEFWKQYVDGDQCESNPCLNGGSCKDDINSYECWCPFGFEGKNCELDVTCNIKNGRCEQFCKNSADNKVVCSCTEGYRLAENQKSCEPAVPFPCGRVSVSQTSKLTR
chain 2: VVGGEDAKPGQFPWQVVLNGKVDAFCGGSIVNEKWIVTAAHCVETGVKITVVAGEHNIEETEHTEQKRNVIRIIPHHNYNAAINKYNHDIALLELDEPLVLNSYVTPICIADKEYTNIFLKFGSGYVSGWGRVFHKGYSALVLQYLRVPLVDRATCLESTKFTIYNNMFCAGFHEGGRDSCQGDSGGPHVTEVEGTSFLTGIISWGEECAMKGKYGIYTKVSEYVNWIKNKTKLT
As to B5, the K0.5 in data set [3] is above 10 µM.

B6: FIXa D104N/K106S/Y155F/R318Y/R338E/R403E/E410N (mature FIX numbering) (protein)
chain 1: YNSGKLEEFVQGNLERECMEEKCSFEEAREVFENTERTTEFWKQYVDGDQCESNPCLNGGSCKDDINSYECWCPFGFEGKNCELDVTCNIKNGRCEQFCKNSANNSVVCSCTEGYRLAENQKSCEPAVPFPCGRVSVSQTSKLTR
chain 2: VVGGEDAKPGQFPWQVVLNGKVDAFCGGSIVNEKWIVTAAHCVETGVKITVVAGEHNIEETEHTEQKRNVIRIIPHHNYNAAINKYNHDIALLELDEPLVLNSYVTPICIADKEYTNIFLKFGSGYVSGWGRVFHKGYSALVLQYLRVPLVDRATCLESTKFTIYNNMFCAGFHEGGRDSCQGDSGGPHVTEVEGTSFLTGIISWGEECAMKGKYGIYTKVSEYVNWIKNKTKLT
B6 registered a K0.5 in data set [3] above 10 µM.

B7: FIXa-R318Y/R338E/T343R/R403E/E410N (protein)
chain 1: YNSGKLEEFVQGNLERECMEEKCSFEEAREVFENTERTTEFWKQYVDGDQCESNPCLNGGSCKDDINSYECWCPFGFEGKNCELDVTCNIKNGRCEQFCKNSADNKVVCSCTEGYRLAENQKSCEPAVPFPCGRVSVSQTSKLTR
chain 2: VVGGEDAKPGQFPWQVVLNGKVDAFCGGSIVNEKWIVTAAHCVETGVKITVVAGEHNIEETEHTEQKRNVIRIIPHHNYNAAINKYNHDIALLELDEPLVLNSYVTPICIADKEYTNIFLKFGSGYVSGWGRVFHKGYSALVLQYLRVPLVDRATCLESTKFRIYNNMFCAGFHEGGRDSCQGDSGGPHVTEVEGTSFLTGIISWGEECAMKGKYGIYTKVSEYVNWIKNKTKLT
Consider B7, for which, in the data set with Factor X (FX), P00742, the KM was 0.0247 µM; the KM (nM); Catalytic activity of FIXa variants (KM) worked out at 22.3 nM; the kcat of FX activation by FIXa in the Xase complex (FVIIIa, PC/PS vesicles, Ca2+) amounted to 9.7 s⁻¹; the specificity constant (kcat/KM) turned out to be 5.4e+08 M⁻¹ s⁻¹. Moreover, the K0.5-mut/K0.5-wt (against Catalyst Biosciences WT FIXa) in data set [4] is above 517. The “catalytic activity (kcat/KM)” value in data set [1] is reported as “displayed some of the greatest increases in catalytic activity”.

B8: FIXa-R318Y/R338E/E410N (protein)
chain 1: YNSGKLEEFVQGNLERECMEEKCSFEEAREVFENTERTTEFWKQYVDGDQCESNPCLNGGSCKDDINSYECWCPFGFEGKNCELDVTCNIKNGRCEQFCKNSADNKVVCSCTEGYRLAENQKSCEPAVPFPCGRVSVSQTSKLTR
chain 2: VVGGEDAKPGQFPWQVVLNGKVDAFCGGSIVNEKWIVTAAHCVETGVKITVVAGEHNIEETEHTEQKRNVIRIIPHHNYNAAINKYNHDIALLELDEPLVLNSYVTPICIADKEYTNIFLKFGSGYVSGWGRVFHKGYSALVLQYLRVPLVDRATCLESTKFTIYNNMFCAGFHEGGRDSCQGDSGGPHVTEVEGTSFLTGIISWGEECAMKGKYGIYTKVSRYVNWIKNKTKLT
With B8, in the data set with Factor X (FX), P00742, the kcat/KM (M^-1s^-1), FX activation by FIXa in the Xase complex stood at 3.4e+08 M⁻¹ s⁻¹ and the kcat/KM for FX activation (Xase assay with FVIIIa, PC/PS vesicles, Ca2+) was determined as 3.4e+08 M⁻¹ s⁻¹. The KM (Catalytic activity of FIXa variants) with Factor X, P00742 is 0.0142 µM. Also, in data set [1], the “catalytic activity (kcat/KM)” value is recorded as “displayed some of the greatest increases in catalytic activity”. For the same protein, in data set [2], the K0.5 was 3.46 µM and the K0.5-mut/K0.5-wt worked out at 179.

B9: FIXa A103N/N105S/Y155F/R318Y/R338E/R403E/E410N (mature FIX numbering) (protein)
chain 1: YNSGKLEEFVQGNLERECMEEKCSFEEAREVFENTERTTEFWKQYVDGDQCESNPCLNGGSCKDDINSYECWCPFGFEGKNCELDVTCNIKNGRCEQFCKNSNDSKVVCSCTEGYRLAENQKSCEPAVPFPCGRVSVSQTSKLTR
chain 2: VVGGEDAKPGQFPWQVVLNGKVDAFCGGSIVNEKWIVTAAHCVETGVKITVVAGEHNIEETEHTEQKRNVIRIIPHHNYNAAINKYNHDIALLELDEPLVLNSYVTPICIADKEYTNIFLKFGSGYVSGWGRVFHKGYSALVLQYLRVPLVDRATCLESTKFTIYNNMFCAGFHEGGRDSCQGDSGGPHVTEVEGTSFLTGIISWGEECAMKGKYGIYTKVSEYVNWIKNKTKLT
Take B9: the K0.5 in data set [3] was above 10 µM.

B10: FIXa-K228N/K247N/N249S (protein)
chain 1: YNSGKLEEFVQGNLERECMEEKCSFEEAREVFENTERTTEFWKQYVDGDQCESNPCLNGGSCKDDINSYECWCPFGFEGKNCELDVTCNIKNGRCEQFCKNSADNKVVCSCTEGYRLAENQKSCEPAVPFPCGRVSVSQTSKLTR
chain 2: VVGGEDAKPGQFPWQVVLNGKVDAFCGGSIVNEKWIVTAAHCVETGVNITVVAGEHNIEETEHTEQNRSVIRIIPHHNYNAAINKYNHDIALLELDEPLVLNSYVTPICIADKEYTNIFLKFGSGYVSGWGRVFHKGRSALVLQYLRVPLVDRATCLRSTKFTIYNNMFCAGFHEGGRDSCQGDSGGPHVTEVEGTSFLTGIISWGEECAMKGKYGIYTKVSRYVNWIKEKTKLT
On to B10, for which the K0.5-mut/K0.5-wt (against Catalyst Biosciences WT FIXa) in data set [5] was determined as 4.4. The “catalytic activity (kcat/KM)” value in data set [1] was “demonstrated close to wild-type activity”.

B11: FIXa D104N/K106S/R318Y/R338E/R403E/E410N (mature FIX numbering) (protein)
chain 1: YNSGKLEEFVQGNLERECMEEKCSFEEAREVFENTERTTEFWKQYVDGDQCESNPCLNGGSCKDDINSYECWCPFGFEGKNCELDVTCNIKNGRCEQFCKNSANNSVVCSCTEGYRLAENQKSCEPAVPFPCGRVSVSQTSKLTR
chain 2: VVGGEDAKPGQFPWQVVLNGKVDAFCGGSIVNEKWIVTAAHCVETGVKITVVAGEHNIEETEHTEQKRNVIRIIPHHNYNAAINKYNHDIALLELDEPLVLNSYVTPICIADKEYTNIFLKFGSGYVSGWGRVFHKGYSALVLQYLRVPLVDRATCLESTKFTIYNNMFCAGFHEGGRDSCQGDSGGPHVTEVEGTSFLTGIISWGEECAMKGKYGIYTKVSEYVNWIKNKTKLT
B11 showed a K0.5 in data set [3] above 10 µM.

B12: FIXa A103N/N105S/R318Y/R338E/R403E/E410N (mature FIX numbering) (protein)
chain 1: YNSGKLEEFVQGNLERECMEEKCSFEEAREVFENTERTTEFWKQYVDGDQCESNPCLNGGSCKDDINSYECWCPFGFEGKNCELDVTCNIKNGRCEQFCKNSNDSKVVCSCTEGYRLAENQKSCEPAVPFPCGRVSVSQTSKLTR
chain 2: VVGGEDAKPGQFPWQVVLNGKVDAFCGGSIVNEKWIVTAAHCVETGVKITVVAGEHNIEETEHTEQKRNVIRIIPHHNYNAAINKYNHDIALLELDEPLVLNSYVTPICIADKEYTNIFLKFGSGYVSGWGRVFHKGYSALVLQYLRVPLVDRATCLESTKFTIYNNMFCAGFHEGGRDSCQGDSGGPHVTEVEGTSFLTGIISWGEECAMKGKYGIYTKVSEYVNWIKNKTKLT
For the protein B12, the K0.5 in data set [3] was 9.19 µM.
